Measured values as given in publication PMC10874388, “Cyclic peptides discriminate BCL-2 and its clinical mutants from BCL-XL by engaging a single-residue discrepancy” (Nature Communications, 2024).
Starred links: 1 amine or outer side, 2 acyl side, 3 side chain; linkers in the order of their positions; H or OH if unused. Positions of bridges follow the written chain, without caps; N, C: chain ends. Residues, ends and D or L forms follow the SMILES beside them. Primed or numbered codes have the meaning given here. No end group written: not given here. *: point of attachment. X1 = O=C(C[*:2])NCCNC(=O)c1ccc(C2=N[C@H](C(=O)[*:1])CS2)cc1; FITC = O=C1OC2(c3ccc(O)cc3Oc3cc(O)ccc32)c2ccc(NC(=S)*)cc21; cADT = 2-aryl-4,5-dihydrothiazole (ADT) linker; FITC′ = fluorescein isothiocyanate; ADT (ClAc-3) = not defined here

T1: BCL-w (residues 6-152) (human, UniProt Q92843 6-152, biotin (biotinylated for SPR; site not stated))
T1 construct: source: E. coli BL21 (DE3), purified (Ni-NTA, Superdex 75, RESOURCE Q, Superdex 200)
T1 sequence (looked up): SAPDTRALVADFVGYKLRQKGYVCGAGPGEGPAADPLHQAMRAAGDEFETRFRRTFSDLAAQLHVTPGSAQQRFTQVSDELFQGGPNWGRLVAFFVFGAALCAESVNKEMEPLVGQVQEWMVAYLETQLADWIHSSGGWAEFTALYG

T2: cp2-F (linker 1-11 via ADT (ClAc-3) (inferred); reading uncertain; also: modified by ClAc-3, printed as CPIRYEWDEFCG{K(FITC)})
T2 construct: also called cp2-FITC; source: synthetic peptide
T2 peptide: CPIRYEWDEFCGK(FITC′)

B1: cp2 (peptide)
peptide: CPIRYEWDEFC
modifications: linker 1-11 via cADT (inferred)
notes: cyclic peptide from the second phage library CPXRYXWDXXC screened against BCL-2; they agree with I3, E6, E9 and F10 named in the text
B2: cp3 (peptide)
peptide: CPIRYPWDVEC
modifications: linker 1-11 via cADT (inferred)
notes: cyclic peptide from the second phage library CPXRYXWDXXC screened against BCL-XL; they agree with P6, V9 and E10 named in the text
B3: chimeric human BCL-2 (residues 1-50 and 92-207, residues 35-50 replaced with residues 33-48 of BCL-XL) (domain or fragment, UniProt P10415 1-34, looked up)
chain: MAHAGRTGYDNREIVMKYIHYKLSQRGYEWDAGDNRTEAPEGTESEMETPVVHLTLRQAGDDFSRRYRRDFAEMSSQLHLTPFTARGRFATVVEELFRDGVNWGRIVAFFEFGGVMCVESVNREMSPLVDNIALWMTEYLNRHLHTWIQDNGGWDAFVELYGPSMR
modifications: biotin (biotinylated for SPR; site not stated)
notes: BCL-2, human, residues 1-34 of the chimera (internal loop 51-91 removed; residues 35-50 replaced with residues 33-48 of BCL-XL); BCL-XL, human, residues 33-48, in place of BCL-2 residues 35-50; BCL-2, human, residues 92-207; Biotinylated for SPR; used as such for crystals and fluorescence polarisation; also called BCL-2 WT; source: E. coli BL21 (DE3), purified (Ni-NTA, Superdex 75, RESOURCE Q, …)

How the values were obtained:
El4 cells = experiment: Cell viability assay (CellTiter-Glo), El4; type: cell-based; conditions: Mus musculus, 48 h treatment, NO = no inhibition detected
Description: (§1) The cell lines Jurkat (TIB-152), El4 (TIB-39), Daudi (ccl-213), RS4:11 (crl-1873), A549 (ccl-185), HepG2 (hb-8065) and PANC-1 (crl-1469) were purchased from ATCC (American Type Culture Collection), and MGC-803 (C6582) was purchased from Beyotime (https://www.beyotime.com/product/C6582.htm). […] Daudi and RS4:11 cells were cultured in RPMI-1640 medium (HyClone, SH30809.01) and 10% FBS (Gibco, 10099-141), whereas HepG2, MGC-803 and PANC-1 cells were cultured in MDEM (HyClone, SH30243.01). Cells were maintained at 37 °C under a humidified, 5% (v/v) CO2-containing atmosphere.
(§2) Cell viability was measured using CellTiter-Glo® 2.0 Reagent (Promega, G9242). […] After different inhibitors were added into serum-free medium and cultured for 4 h (RS4:11 for 6 h), FBS were supplemented to 10% and then incubated totally for 24 h or 48 h. Finally, the IC50 values were calculated based on measurements using a microplate reader (Thermo, Varioskan LUX). Statistical analysis was performed using software GraphPad Prism 7.0.

Jurkat cells [1] = experiment: Cell viability assay (CellTiter-Glo), Jurkat; type: cell-based; conditions: Homo sapiens, 48 h treatment, CellTiter-Glo
Description: as §1, §2

[2] = set-up: method as in PMID 23410971; conditions: attributed to binding to BCL-XL; cited from earlier work
Daudi cells = experiment: Cell viability assay (CellTiter-Glo), Daudi; type: cell-based; conditions: Homo sapiens, Daudi, 48 h, 48 h treatment, CellTiter-Glo
Description: as §1, §2

RS4:11 cells = experiment: Cell viability assay (CellTiter-Glo), RS4:11; type: cell-based; conditions: Homo sapiens, RS4-11; 48 h treatment, CellTiter-Glo; small-molecule inhibitors, cells marked (nM)
Method in brief: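 Compounds added in serum-free medium for 4 h (RS4:11: 6 h), then FBS brought to 10% and incubation continued to 24 h or 48 h total at 37 °C, 5% CO2. Viability by CellTiter-Glo 2.0 luminescence; IC50 calculated.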

Jurkat cells [3] = type: cell-based
Description: Supplementary Figure 10 Functional mechanism of CPs. a. IC50 values of venetoclax against A549, MGC-803 and PANC-1 cells, measured after 48 h treatment by a CellTiter-Glo assay and calculated using Prism 7.0 by a nonlinear-fit method. Data are presented as mean ± s.d.; n= 6 biological replicates. b. Western blot detecting the protein expression levels of BCL-2 and BCL-XL in A549, MGC-803, Daudi and Jurkat cells. c-d. Western blot detecting the protein expression levels of BCL-2 and BCL-XL in El4 cells (c) and RS4:11 cells (d). e. Western blot verifying the protein expression levels of exogenous BCL-2 in normal A549 cells (control) and those stably overexpressing BCL-2 WT or G101V mutant. f. qPCR results testing the overexpression of BCL-2 WT or G101V mutant in A549 stable cells. Data are presented as mean ± s.d.; n= 6 biological replicates; one-way ANOVA with Dunnett’s multiple comparisons test. g. Cell viability assay of Jurkat cells after 48 h treatment with DMSO, cp1-FITC, cp6-FITC, respectively. P1 represents the percentage of active cells. h. FITC signal tests after 48 h treatment with DMSO, cp1-FITC, cp6-FITC, respectively. P4 represents cells with the FITC signal. i-k. Structures of cp1-TAT, cp2-TAT and cp3-TAT. […]

[4] = target: T3, human BCL-XL (residues 1-210, with 27-81 and 210-233 removed) (human, UniProt Q07817-1 1-209, 27-81 removed, biotin (biotinylated for SPR; site not stated)); experiment: SPR; Biacore T200; biotinylated proteins immobilised on a CAP sensor chip; peptides flowed in multiple cycles (25-12800 nM, depending on the peptides) at 30 uL/min; 10 mM PBS, 50 uM EDTA, 0.05% Tween-20, 25 °C; affinity fitting, 1:1 binding model; conditions: both partners purified
T3 construct: BCL-XL, human; printed as residues 1-210, with 27-81 and 210-233 removed (so the last residue is 209 or 210); source: E. coli BL21 (DE3), purified (Ni-NTA, Superdex 75, RESOURCE Q, Superdex 200)
T3 sequence (Q07817 other isoform, or with tags, fused parts or gaps 27-81 removed | 27-81 removed): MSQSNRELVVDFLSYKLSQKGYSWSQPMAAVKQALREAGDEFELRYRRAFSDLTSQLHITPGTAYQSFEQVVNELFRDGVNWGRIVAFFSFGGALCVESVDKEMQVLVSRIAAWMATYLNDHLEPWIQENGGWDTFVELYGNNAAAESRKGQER

BCL-2-D111A = target: T4, BCL-2-D111A (human, UniProt P10415 1-34; Q07817 33-48; P10415 92-207, D111A, biotin (biotinylated for SPR; site not stated)); experiment: as above; conditions: both partners purified
T4 construct: BCL-2, human, residues 1-34 of the chimera, as m6; BCL-XL, human, residues 33-48, in place of BCL-2 residues 35-50; BCL-2, human, residues 92-207; Chimera m6 with the point mutation D111A made by mutagenic PCR; also called BCL-2 D111A mutant; source: E. coli BL21 (DE3), purified (Ni-NTA, Superdex 75, RESOURCE Q, Superdex 200)
T4 sequence (P10415 other isoform, or with tags, fused parts or gaps D111A | D111A | D111A D111A): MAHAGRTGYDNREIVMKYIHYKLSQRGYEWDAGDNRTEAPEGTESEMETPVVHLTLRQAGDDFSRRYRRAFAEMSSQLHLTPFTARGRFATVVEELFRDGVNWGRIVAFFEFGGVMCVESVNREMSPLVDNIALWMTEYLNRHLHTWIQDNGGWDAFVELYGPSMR

BCL-2-F104L = target: T5, BCL-2-F104L (human, UniProt P10415 1-34; Q07817 33-48; P10415 92-207, F104L, biotin (biotinylated for SPR; site not stated)); experiment: as above; conditions: both partners purified
T5 construct: BCL-2, human, residues 1-34 of the chimera, as m6; BCL-XL, human, residues 33-48, in place of BCL-2 residues 35-50; BCL-2, human, residues 92-207; Chimera m6 with F104L, a drug-resistant mutation found in a mouse model (residue number of the human protein); also called BCL-2 F104L mutant; source: E. coli BL21 (DE3), purified (Ni-NTA, Superdex 75, RESOURCE Q, Superdex 200)

[5] = target: B3; experiment: as above; conditions: both partners purified
BCL-2-G101V = target: T6, BCL-2-G101V (human, UniProt P10415 1-34; Q07817 33-48; P10415 92-207, G101V, biotin (biotinylated for SPR; site not stated)); experiment: as above; conditions: both partners purified
T6 construct: BCL-2, human, residues 1-34 of the chimera, as m6; BCL-XL, human, residues 33-48, in place of BCL-2 residues 35-50; BCL-2, human, residues 92-207; Chimera m6 with the venetoclax-resistant clinical mutation G101V; also called BCL-2 G101V mutant; source: E. coli BL21 (DE3), purified (Ni-NTA, Superdex 75, RESOURCE Q, Superdex 200)
T6 sequence (P10415 other isoform, or with tags, fused parts or gaps G101V | G101V | G101V G101V): as the sequence (P10415 other isoform, or with tags, fused parts or gaps D111A | D111A | D111A D111A) above, with G60V, A70D counted along it

BCL-w (residues 6-152) = target: T1, BCL-w (residues 6-152); experiment: as above; conditions: both partners purified
BCL-2-D103Y = target: T7, BCL-2-D103Y (human, UniProt P10415 1-34; Q07817 33-48; P10415 92-207, D103Y, biotin (biotinylated for SPR; site not stated)); experiment: as above; conditions: both partners purified
T7 construct: BCL-2, human, residues 1-34 of the chimera, as m6; BCL-XL, human, residues 33-48, in place of BCL-2 residues 35-50; BCL-2, human, residues 92-207; Chimera m6 with the clinical mutation D103Y; source: E. coli BL21 (DE3), purified (Ni-NTA, Superdex 75, RESOURCE Q, Superdex 200)
T7 sequence (P10415 other isoform, or with tags, fused parts or gaps D103Y | D103Y | D103Y D103Y): as the sequence (P10415 other isoform, or with tags, fused parts or gaps D111A | D111A | D111A D111A) above, with D62Y, A70D counted along it

cp2-F = target: T2, cp2-F; experiment: fluorescence polarisation; direct binding: 20 nM FITC-labelled peptide, protein 60-1000 nM, 1x PBS pH 7.4, room temperature, 10 min; conditions: both partners purified

Molecule	Penetration efficiency (FITC signal in cells) (Jurkat cells [3])	Kd [4] [nM]	Kd (BCL-2-D111A) [nM]	Kd (BCL-2-F104L) [nM]	Kd [5] [nM]	Kd (BCL-2-G101V) [nM]	Kd (BCL-w (residues 6-152)) [nM]	Kd (BCL-2-D103Y) [nM]	also measured
CC1(C)CCC(c2ccc(Cl)cc2)=C(CN2CCN(c3ccc(C(=O)NS(=O)(=O)c4ccc(N[C@H](CCN5CCOCC5)CSc5ccccc5)c(S(=O)(=O)C(F)(F)F)c4)cc3)CC2)C1 [ABT-263, navitoclax]									IC50 (El4 cells): > 100000 nM; IC50 (Jurkat cells [1]): 8500 ± 500 nM; Thrombocytopenia [2]: dose-dependent thrombocytopenia; IC50 (Daudi cells): 13500 ± 1500 nM; IC50 (RS4:11 cells): 0.4 ± 0.1 nM
C[C@@H]1NC(=O)[C@@H]2CCCN2C(=O)[C@@H]2CSC(=N2)c2ccc(cc2)C(=O)NCCNC(=O)CSC[C@@H](C(=O)NCC(=O)N[C@@H](CCCCNC(=S)Nc2ccc3c(c2)C(=O)OC32c3ccc(O)cc3Oc3cc(O)ccc32)C(N)=O)NC(=O)[C@H](CCC(=O)O)NC(=O)[C@H](Cc2ccc(O)cc2)NC(=O)[C@H](CC(=O)O)NC(=O)[C@H](Cc2c[nH]c3ccccc23)NC(=O)CNC(=O)[C@H](Cc2ccc(O)cc2)NC(=O)[C@H](CCCNC(=N)N)NC1=O [cp1-FITC] (PARYGWDYECGK(FITC)-NH2; linker N-10 via X1)	relatively low penetration efficiency								
cp6-FITC: FITC-labeled cp6; CPARYFWDYKCGK(FITC) (CPARYFWDYKCGK(FITC′); not fully specified (bridges); printed as CPARYFWDYKCGK(FITC); cysteine pairing not given here)	relatively low penetration efficiency								
B1		730	120	260	200	300	1450	210	
B2		90	90	710	240	660	220	340	
B3									binding result (cp2-F): binds
